Data as given in patent US20240228586.

Molecular target: M-L2-IL12 (masked mouse IL-12 whose linker contains 3 repeats of VPLSLYSG), Q60837
Sequence (Q60837 whole entry, looked up): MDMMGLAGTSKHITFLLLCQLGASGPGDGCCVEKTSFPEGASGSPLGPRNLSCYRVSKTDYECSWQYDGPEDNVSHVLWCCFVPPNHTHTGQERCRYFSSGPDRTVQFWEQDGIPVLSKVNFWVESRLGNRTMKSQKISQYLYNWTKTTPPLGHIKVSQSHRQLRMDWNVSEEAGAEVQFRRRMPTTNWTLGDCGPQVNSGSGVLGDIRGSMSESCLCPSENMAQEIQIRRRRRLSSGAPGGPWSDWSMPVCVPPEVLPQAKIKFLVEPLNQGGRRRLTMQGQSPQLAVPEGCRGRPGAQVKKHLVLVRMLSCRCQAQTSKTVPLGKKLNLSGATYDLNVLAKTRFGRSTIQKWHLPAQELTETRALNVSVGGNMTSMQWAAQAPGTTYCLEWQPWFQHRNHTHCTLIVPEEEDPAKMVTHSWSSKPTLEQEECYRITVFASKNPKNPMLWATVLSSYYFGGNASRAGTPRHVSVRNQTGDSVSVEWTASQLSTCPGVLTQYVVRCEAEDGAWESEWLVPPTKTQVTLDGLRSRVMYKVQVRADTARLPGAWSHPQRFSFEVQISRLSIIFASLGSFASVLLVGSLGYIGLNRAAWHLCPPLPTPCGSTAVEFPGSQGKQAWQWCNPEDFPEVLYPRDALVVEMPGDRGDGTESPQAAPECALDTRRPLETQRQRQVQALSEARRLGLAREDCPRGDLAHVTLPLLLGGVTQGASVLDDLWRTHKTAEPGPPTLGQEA

B1: recombinant mouse matrix metalloproteinase-9 (protein)
chain: FQTFKGLKWDHHNITYWIQNYSEDLPRDMIDDAFARAFAVWGEVAPLTFTRVYGPEADIVIQFGVAEHGDGYPFDGKDGLLAHAFPPGAGVQGDAHFDDDELWSLGKGVVIPTYYGNSNGAPCHFPFTFEGRSYSACTTDGRNDGTPWCSTTADYDKDGKFGFCPSERLYTEHGNGEGKPCVFPFIFEGRSYSACTTKGRSDGYRWCATTANYDQDKLYGFCPTRVDATVVGGNSAGELCVFPFVFLGKQYSSCTSDGRRDGRLWCATTSNFDTDKKWGFCPDQGYSLFLVAAHEFGHALGLDHSSVPEALMYPLYSYLEGFPLNKDDIDGIQYLYGRGSKPDPRPPATTTTEPQPTAPPTMCPTIPPTAYPTVGPTVGPTGAPSPGPTSSPSPGPTGAPSPGPTAPPTAGSSEASTESLSPADNPCNVDVFDAIAEIQGALHFFKDGWYWKFLNHRGSPLQGPFLTARTWPALPATLDSAFEDPQTKRVFFFSGRQMWVYTGKTVLGPRSLDKLGLGPEVTHVSGLLPRRLGKALLFSKGRVWRFDLKSQKVDPQSVIRVDKEFSGVPWNSHDIFQYQDKAYFCHGKFFWRVSFQNEVNKVDHEVNQVDDVGYVTYDLLQCP
in vitro cleavage, 30 min at 37° C., SDS-PAGE: Decrease of molecular weight from ˜105 kDa to ˜60 kDa indicates proteolytic cleavage of IL12Rβ1-VP-IL12 and IL12Rβ1-LS-IL12
